Experimental findings from patent publication US20220389097A1 (Genentech, published 2022) are described below.

For one experiment, the target named is T1, hTREM2 stalk antigen (human, UniProt Q9NZC2 129-174).
T1 construct: also called human TREM2 stalk
T1 chain: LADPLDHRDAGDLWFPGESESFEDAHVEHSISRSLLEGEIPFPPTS
The experiment in a line: SPR (Biacore T200), 37 C; TREM2 stalk antigen on anti-human IgG1 Fc chip, antibody in solution. Here is the method: (§1) Forty-six rat anti-human antibodies were tested for binding affinity to the hTREM2 and cynomolgus TREM2 stalk. Antibody binding affinities for hTREM2 stalk and cynomolgus TREM2 stalk were measured by surface plasmon resonance (SPR) using a Biacore™ T200 apparatus. TREM2 stalk antigens (human or cynomolgus) were immobilized on anti-human IgG1 Fc Biacore™ chips and anti-TREM2 antibody clones were bound to immobilized TREM2 at 37° C. Binding affinities, KD (nM) were measured and recorded.
(§2) Several antibodies were selected for binding measurements against cynomolgus TREM2 stalk. […] These four antibodies are referred to collectively below as the “3.10C2 group” of antibodies.
A general note: In SPR one partner is held on a chip, and binding of the other changes the refractive index at the surface.

Experiment [1] has as its target T2, cynomolgus TREM2 stalk antigen (cynomolgus monkey, UniProt A0A2K5UY34 159-204, not fully specified).
T2 construct: domain: stalk
T2 chain: T1 chain with F15V
The experiment is described as above. Here is the method:
as §1, §2

The target of experiment [2] is T3, soluble human TREM2 (sTREM2) (human, UniProt Q9NZC2 19-157).
T3 construct: also called soluble TREM2; TREM2 ectodomain
T3 sequence: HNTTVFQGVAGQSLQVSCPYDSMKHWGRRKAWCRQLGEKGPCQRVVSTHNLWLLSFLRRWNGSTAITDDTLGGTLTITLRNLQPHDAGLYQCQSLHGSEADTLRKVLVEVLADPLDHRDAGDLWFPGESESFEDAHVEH
Description: sandwich ELISA: test antibody coated as capture, sTREM2 from BMDM culture supernatant, biotinylated 3.17A9 as detection; normalised to 1.16B8. The source says:
For example, as shown in an Example 11 herein, the human TREM2 ELISA assay measured binding of antibodies to sTREM2 by coating onto plate wells the antibody to be tested as capture reagents and with biotinylated IgV-reactive monoclonal antibody 3.17A9 used as the detection reagent. Control antibody 1.16B8 was used as a positive control antibody to establish the standard for sTREM2 binding.
A human TREM2 ELISA assay was used to measure binding of more than forty antibodies to soluble TREM2 (sTREM2) as follows: test anti-hTREM2 antibodies were coated onto plate wells as capture reagents and a biotinylated IgV-reactive monoclonal antibody, 3.17A9, was used as the detection reagent. Antibody 1.16B8 was used as a control antibody to establish the standard for sTREM2 binding. Plates coated with test or control antibody were incubated with diluted culture supernatant from bone marrow-derived macrophage (BMDM) cultures from transgenic mice expressing hTREM2. sTREM2 is constitutively produced by the BMDM cultures expressing hTREM2 and shed into the culture supernatant. Measurements were recorded at 450 nm for detection and 570 nm for background. The 3.17A9/1.16B8 antibody pair was selected over reagents provided in the R&D Systems kit as the commercial reagents were not compatible with sTREM2 detection of some of the antibodies tested. Control antibody 1.16B8 light chain sequence is shown in SEQ ID NO: 170, and its heavy chain sequence is shown in SEQ ID NO: 171.
A general note: ELISA stands for enzyme-linked immunosorbent assay.

The target in the next experiment is T4, human TREM2 on cells (human, UniProt Q9NZC2 19-230).
T4 sequence: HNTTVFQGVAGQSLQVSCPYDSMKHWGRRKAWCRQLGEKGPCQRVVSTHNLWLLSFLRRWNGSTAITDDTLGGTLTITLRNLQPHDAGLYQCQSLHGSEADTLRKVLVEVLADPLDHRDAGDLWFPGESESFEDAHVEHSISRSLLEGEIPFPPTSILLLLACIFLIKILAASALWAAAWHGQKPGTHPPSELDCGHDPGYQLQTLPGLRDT
Description: cell-based or functional assay.

For experiment [3], the target named is T5, 159-175 (also: biotinylated (site not given here)).
T5 construct: member of the group m13
T5 peptide: ISRSLLEGEIPFPPTSI
Description: peptide ELISA with IgG, grey-scale heat map of OD650nm.

Experiment [4] addresses T6, soluble monomeric human TREM2 (human, UniProt Q9NZC2 19-174, limits assumed).
T6 construct: Not the same as shed sTREM2; also called soluble monomeric TREM2
T6 sequence: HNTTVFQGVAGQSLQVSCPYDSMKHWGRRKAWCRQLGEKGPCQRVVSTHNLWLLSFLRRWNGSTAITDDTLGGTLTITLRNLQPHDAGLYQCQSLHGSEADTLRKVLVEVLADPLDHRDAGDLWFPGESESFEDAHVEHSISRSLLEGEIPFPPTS
Description: SPR (Biacore T200), 37 C; IgG on anti-CH1 chip, soluble monomeric TREM2.

The target of experiment [5] is T7, hTREM2 stalk peptide 146-169 (human, biotinylated).
T7 peptide: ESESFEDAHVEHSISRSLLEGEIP
The experiment in a line: ELISA: biotinylated peptide captured on streptavidin plate, antibody detected with anti-mouse IgG-HRP. The text has this: (§3) The antibody epitopes were mapped to the stalk region of human TREM2 using enzyme-linked immunosorbent assay (ELISA). Overlapping biotinylated peptides were captured in ELISA plates coated with streptavidin. The binding of antibodies to peptides was detected with an anti-mouse IgG conjugated to horseradish peroxidase.

The target in experiment [6] is T8, hTREM2 stalk peptide 146-161 (human, also: biotinylated (site not given here)).
T8 peptide: ESESFEDAHVEHSISR
Described as above.
Excerpt: as §3

Experiment [7] has as its target T9, hTREM2 stalk peptide 151-165 (human, also: biotinylated (position not given here)).
T9 peptide: EDAHVEHSISRSLLE
Described as above.
Excerpt: as §3

In experiment [8] the target is T5, 159-175. The description is as above.
Excerpt: as §3

The target in the next experiment is T10, 155-169 (also: biotinylated (site not given here)).
T10 construct: member of the group m13
T10 peptide: VEHSISRSLLEGEIP
The description is as above.
Excerpt: as §3

A further experiment addresses T11, 154-164 (also: biotinylated (site not given here)).
T11 construct: member of the group m13; also called hTREM2 stalk 154-164
T11 peptide: HVEHSISRSLL
Described as above.
Excerpt: as §3

Experiment [9] deals with T12, hTREM2 stalk peptide 149-168 (human, biotinylated).
T12 peptide: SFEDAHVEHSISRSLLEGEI
Described as above.
Excerpt: as §3

The target of the next experiment is T13, 152-161 (also: biotinylated (site not given here)).
T13 construct: member of the group m13
T13 peptide: DAHVEHSISR
The description is as above.
Excerpt: as §3

A further experiment concerns the target T14, 129-148 (biotinylated (site not given)).
T14 construct: member of the group m13
T14 peptide: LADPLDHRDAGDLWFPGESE
The experiment is described as above.
Excerpt: as §3

In the next experiment the target is T15, 139-158 (biotinylated (site not given)).
T15 construct: member of the group m13
T15 peptide: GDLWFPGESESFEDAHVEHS
The description is as above.
Excerpt: as §3

For experiment [10], the target named is T16, hTREM2 stalk peptide residues 129-175 (human, biotinylated).
T16 construct: also called human TREM2 stalk peptide
T16 peptide: T1 chain
The description is as above.
Excerpt: as §3

Positions count from the first letter of the chain named. Where no end group is shown, it is not given here.

B1: 3.27H7 (rat anti-human TREM2 antibody) (antibody, V domains shown)
VH: EVQLVETGGSLVQPGGSLKLTCATSGFPFSNVWLHWIRRSPEKQLEWVAQIKARSDNYATYYAESVKGRFIVSRDDSKTTIYLQMNNLKEEDTAIYYCTGLDYWGQGVMVTVSS
VL: DVVLTQAPLSVSVTPGESASISCRSSRSLLTSKGITSLYWYLQKPGMSPHLLIYRMSNLASGIPDRFSGSGSETDFTLKISEVEPEDVGVYYCAQFLVYPYTFGAGTKLELK
notes: Whole IgG
On to B1, for which the Kd stood at 0.22 nM in the experiment with hTREM2 stalk antigen and 0.26 nM in [1].

B2: rat Para.09- LC 3.27H7 mIgG2a LALAPG (antibody, V domains shown)
VH: EVQLVETGGSLVQPGKSLRLTCATSGFPFSNVWLHWVRQSPEKHPEWVAHIKAKSDNYATYYAESVKGRFTISRDDSKSSVFLQMNSLKEEDTAIYYCTDILEYWGQGTLVTVSS
VL: DVVLTQAPLSVSVTPGESASISCRSSRSLLTSKGITSLYWYLQKPGMSPHLLIYRMSNLASGIPDRFSGSGSETDFTLKISEVEPEDVGVYYCAQFLVYPYTFGAGTKLELKR
notes: Mouse IgG2a LALAPG constant region; also called Rat para.09 mIgG2a LALAPG; Para.09. mIgG2a LALAPG
As for B2, the binding result in experiment [2] was “no binding”. Also, the “EC50, Jurkat NFAT luciferase reporter cells” value with human TREM2 on cells is 0.04 µg/mL.

B3: Para.09 IgG with the 3.18E5 light chain (antibody, V domains shown)
VH: B2 VH
VL: DTVLTQAPLSVSVTPGESASISCRSNKSLLGIRDITSLYWYLQKPGKSPQLLIYRMSNLASGVPDRFSGSGSETDFTLKISEVETEDVGVYYCAQFLRYPYTFGPGTKLELK
As to B3, in the experiment with 159-175 [3], the binding result is given as “no binding”.

B4: Para.09 IgG with the 3.27H7 light chain (antibody, V domains shown)
VH: B2 VH
VL: B1 VL
notes: also called rat Para.09; Para.09-L27H7
In experiment [4], B4 came in with a Kd of 0.011 nM, a koff of 2.1e-05 s⁻¹ and a kon of 2e+06 M⁻¹ s⁻¹. The binding result with 159-175 [3] is “no binding”.

B5: Para.09 IgG with the 3.10C2 light chain (antibody, V domains shown)
VH: B2 VH
VL: B3 VL with V11L, N26S, I32V
Take B5: the binding result in the experiment with 159-175 [3] is recorded as “no binding”.

B6: Para.09 IgG with the 3.50G1 light chain (antibody, V domains shown)
VH: B2 VH
VL: B3 VL with Y41F, K112Q
As to B6, the binding result with 159-175 [3] is “no binding”.

B7: rat 3.10C2 mIgG2a LALAPG (antibody, V domains shown)
VH: EVQLVETGGSLVQPGKSLKLTCATSGFPFSNVWMHWVRQSPEKQLEWIAHIKAKSDNYATYYAESVKGRFTISRDDSKTSIYLQMNSLKEDDTAIYYCTGLDYWGQGVMVTVSS
VL: B3 VL with V11L, N26S, I32V
notes: also called Rat 3.10C2 mIgG1a LALAPG
In the case of B7, the binding result in experiment [2] was “no binding”. Moreover, the “EC50, Jurkat NFAT luciferase reporter cells” value with human TREM2 on cells was 0.28 µg/mL.

B8: 3.18E5 (rat anti-human TREM2 antibody) (antibody, IgG2a, V domains shown)
VH: B7 VH with S80T, D91A
VL: B3 VL
notes: Whole IgG
Consider B8, for which the Kd with hTREM2 stalk antigen was 0.26 nM; in experiment [1] it was 0.3 nM. Besides, the “A620 absorbance (ELISA)” value was found to be 1.48 A620 in experiment [5]; 2.89 A620 in experiment [6]; 2.42 A620 in experiment [7]; 0.07 A620 with 159-175 [8]; 0.14 A620 with 155-169; 0.4 A620 with 154-164. For the same molecule, the “A620 absorbance (ELISA)” value was determined as 1.46 A620 in experiment [9]; 0.15 A620 with 152-161; 0.28 A620 with 129-148; 0.51 A620 in the experiment with 139-158; 1.65 A620 in experiment [10].

B9: 3.10C2 (rat anti-human TREM2 antibody) (antibody, V domains shown)
VH: B7 VH
VL: B3 VL with V11L, N26S, I32V
notes: Whole IgG with rat variable regions; also called clone 3.10C2
Consider B9, for which the Kd with hTREM2 stalk antigen came to 0.24 nM; in experiment [1], 0.25 nM. Further, the “A620 absorbance (ELISA)” value in experiment [5] turned out to be 1.65 A620; in [6] it was 2.95 A620; in [7] it was 2.52 A620; with 159-175 [8], 0.07 A620; with 155-169, 0.13 A620; with 154-164, 0.39 A620. Also, the “A620 absorbance (ELISA)” value is 2.16 A620 in experiment [9]; 0.12 A620 in the experiment with 152-161; 0.19 A620 in the experiment with 129-148; 0.37 A620 with 139-158; 1.91 A620 in [10].

Usually Kd stands for the constant that tells how readily two partners part at equilibrium. By koff is commonly meant the rate constant with which the complex falls apart. The low end stands for a long-lived complex, the high end for a short-lived complex. For orientation: kon means the second-order rate constant of association. The low end stands for slower complex formation, the high end for faster complex formation.
